# No end group written: not given here. fluorescein = fluorescein label on the C-terminus of the peptide; Me3 = trimethyl-lysine
# B1: H3(1-15)K4me3 peptide, C-terminal fluoresceinated (peptide, UniProt P68431 2-16, looked up)
# peptide: ARTK(Me3)QTARKSTGGKA-fluorescein
# What was measured:
# [1] = molecular target: the histone peptide containing H3K4me3; assay: ITC + fluorescence polarisation
# [2] = molecular target: PHF2 (1-451), containing both the PHD and Jumonji domains (human, UniProt O75151 1-451); assay: fluorescence polarisation
# PHF2 (1-451), containing both the PHD and Jumonji domains (human, UniProt O75151 1-451), sequence (O75151 1-451): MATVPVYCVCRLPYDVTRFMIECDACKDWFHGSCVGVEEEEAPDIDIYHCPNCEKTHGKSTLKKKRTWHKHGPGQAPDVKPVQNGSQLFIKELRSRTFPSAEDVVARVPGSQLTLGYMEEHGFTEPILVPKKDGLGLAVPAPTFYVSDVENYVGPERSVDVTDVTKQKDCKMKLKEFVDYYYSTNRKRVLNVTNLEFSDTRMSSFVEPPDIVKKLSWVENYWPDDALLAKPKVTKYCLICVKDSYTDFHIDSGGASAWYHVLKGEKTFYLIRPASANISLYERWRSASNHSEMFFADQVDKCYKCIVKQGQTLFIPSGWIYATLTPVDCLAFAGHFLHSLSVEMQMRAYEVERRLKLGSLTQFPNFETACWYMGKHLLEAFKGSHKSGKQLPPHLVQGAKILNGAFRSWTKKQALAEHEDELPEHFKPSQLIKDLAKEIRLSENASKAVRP
Molecule,Kd [1],binding result [2]
"PHF2 (1-451), containing both the PHD and Jumonji domains (from UniProt O75151 1-451) (domain or fragment)",230 to 270 nM,
B1,,binds

# Source: PMC3030633 (Journal of molecular biology, 2010)
